Measurements published in patent US20200085917A1 (UNIVERSITY OF PITTSBURGH OF THE COMMONWEALTH SYSTEM OF …, published 2020).

B1: Ociad2_IPI:IPI00112139.1 (other, mouse, UniProt Q9D8W7 1-154, looked up)
chain: MASVSTHGNQEKSPHLPPLSKQSLLFCPKSKLHIHRGEIAKIIRECQEESFWKRALPFSLISMLVTQGLVHQGYLAANPRFGSLPKVALAGLLGFGLGKASYIRVCQSKFHSFEDQLRGAGFGPEHNRHCLLTCEDCKTRRGLSEKAGSQPSAS
B2: Prdx3_IPI:IPI00116192.1 (other, mouse, UniProt P20108 63-257, looked up)
chain: TPAVTQHAPYFKGTAVVNGEFKELSLDDFKGKYLVLFFYPLDFTFVCPTEIVAFSDKANEFHDVNCEVVAVSVDSHFSHLAWINTPRKNGGLGHMNITLLSDITKQISRDYGVLLESAGIALRGLFIIDPNGVVKHLSVNDLPVGRSVEETLRLVKAFQFVETHGEVCPANWTPESPTIKPSPTASKEYFEKVHQ
B3: Fis1_IPI:IPI00132217.1 (other, mouse, UniProt Q9CQ92 1-152, looked up)
chain: MEAVLNELVSVEDLKNFERKFQSEQAAGSVSKSTQFEYAWCLVRSKYNEDIRRGIVLLEELLPKGSKEEQRDYVFYLAVGNYRLKEYEKALKYVRGLLQTEPQNNQAKELERLIDKAMKKDGLVGMAIVGGMALGVAGLAGLIGLAVSKSKS
B4: Isca2_IPI:IPI00120671.2 (other, mouse, UniProt Q9DCB8 9-154, looked up)
chain: LTAEAVRAVIPRRSGRLLAVFPRLLTRWETTSSIPEAGEGQIRLTDSCVQRLLEITEGSEFLRLQVEGGGCSGFQYKFSLDTVINPDDRVFEQGGARVVVDSDSLAFVKGAQVDFSQELIRSSFQVLNNPQAQQGCSCGSSFSVKV
B5: Cisd1_IPI:IPI00128346.1 (other, mouse, UniProt Q91WS0 1-108, looked up)
chain: MGLSSNSAVRVEWIAAVTFAAGTAALGYLAYKKFYAKENRTKAMVNLQIQKDNPKVVHAFDMEDLGDKAVYCRCWRSKKFPFCDGAHIKHNEETGDNVGPLIIKKKET
B6: Arf2_IPI:IPI00135730.1 (other, mouse, UniProt Q8BSL7 2-181, looked up)
chain: GNVFEKLFKSLFGKKEMRILMVGLDAAGKTTILYKLKLGEIVTTIPTIGFNVETVEYKNISFTVWDVGGQDKIRPLWRHYFQNTQGLIFVVDSNDRERVNEAREELTRMLAEDELRDAVLLVFVNKQDLPNAMNAAEITDKLGLHSLRQRNWYIQATCATSGDGLYEGLDWLSNQLKNQK

Biological target: T1, GST alone (UniProt P08515 1-218 = GST)
T1 construct: Negative control of the pull-downs; also called control GST
Assay: GST pull-down, LC-MS/MS
Experimental: Extracts were spun at 14,000 r.p.m. at 4° C., and clarified supernatants were incubated with glutathione 4B Sepharose beads (GE Healthcare) at 4° C. overnight. The glutathione beads were then washed extensively with ice-cold TNE buffer, and bound proteins were subjected to SDS-PAGE followed by immunoblotting analysis. For the samples subjected to mass spectrometry, glutathione bead-bound proteins from equal amounts (600 μg) of mitochondria were further washed with high stringency RIPA buffer following TNE buffer wash to decrease nonspecific interaction. Proteins were then eluted from the glutathione beads in SDS sample buffer, separated by SDS-PAGE and stained with Coomassie. Proteins in the gel were digested with trypsin and analyzed by mass spectrometry (LC-MS/MS) at the Taplin Biological Mass Spectrometry Facility (Harvard Medical School, Boston, Mass.).

T1 sequence (P08515 whole entry): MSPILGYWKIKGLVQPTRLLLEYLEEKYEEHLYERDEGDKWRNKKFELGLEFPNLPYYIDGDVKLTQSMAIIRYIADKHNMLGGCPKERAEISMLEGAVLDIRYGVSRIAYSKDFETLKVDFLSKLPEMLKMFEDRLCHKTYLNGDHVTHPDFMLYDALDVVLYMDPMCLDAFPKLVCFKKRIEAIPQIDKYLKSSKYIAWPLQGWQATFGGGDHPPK

| binding result | Binder |
| --- | --- |
| no binding | B1 |
| no binding | B2 |
| no binding | B3 |
| no binding | B4 |
| no binding | B5 |
| no binding | B6 |
